# B1: huMabJC18, fully humanized anti-Dkk-1 monoclonal antibody (antibody, human IgG2, kappa, V domains shown)
# VH: EVQLVESGGGLVQPGGSLRLSCAASGFTFSSYAISWVRQAPGKGLEWVASVSGTGLGFQTYYPDSVKGRFTISRDNAKNSLYLQMNSLRAEDTAVYYCATSLENYAFDYWGQGTTVTVSS
# VL: EIVLTQSPATLSLSPGERATLSCRASESVDDFGISFINWYQQKPGQAPRLLIYAGSKQGSGIPARFSGSGSGTDFTLTISSLEPEDFAVYYCQQLKEVPPTFGGGTKVEIKR
# notes: IgG2(delta a: A329S, P330S), kappa; also called huMabJC18 IgG
# What was measured:
# [1] = molecular target: T1, recombinant human Dkk4 (R&D systems Cat No. 1269-DK/CF) (human, UniProt Q9UBT3 19-224); assay: SPR BIAcore, huMabJC18 captured by goat Fab2 anti-human Fc, hDkk-4 titrated from 76.3 nM
# T1 construct: Bought; also called hDkk-4
# T1 sequence (looked up): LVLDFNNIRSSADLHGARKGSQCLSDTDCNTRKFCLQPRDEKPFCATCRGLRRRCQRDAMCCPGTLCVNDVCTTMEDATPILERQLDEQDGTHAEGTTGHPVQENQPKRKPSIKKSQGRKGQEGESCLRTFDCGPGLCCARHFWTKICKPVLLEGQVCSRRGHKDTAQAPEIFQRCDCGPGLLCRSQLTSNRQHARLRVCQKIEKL
# [2] = molecular target: T2, recombinant mouse Dkk-4 (R&D systems Cat No. 3105-DK/CF) (mouse, UniProt Q8VEJ3 19-221, limits assumed); assay: SPR BIAcore, huMabJC18 captured by goat Fab2 anti-human Fc, mDkk-4 titrated from 32.3 nM
# T2 construct: Bought; also called mDkk-4
# T2 sequence (looked up): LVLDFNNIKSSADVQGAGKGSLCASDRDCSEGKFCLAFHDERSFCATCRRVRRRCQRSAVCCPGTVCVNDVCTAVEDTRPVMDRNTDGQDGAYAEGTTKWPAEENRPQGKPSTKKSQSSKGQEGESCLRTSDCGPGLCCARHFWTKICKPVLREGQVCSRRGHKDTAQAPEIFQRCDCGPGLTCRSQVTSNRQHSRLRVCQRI
# [3] = molecular target: T3, Recombinant human Dkk-1 (R&D Systems cat no. 1096-DK/CF), 10xHis tag at the C terminal (human, UniProt O94907 32-266); assay: SPR (Table 4, headed 37C, BIAcore or ProteOn)
# T3 construct: the actual N-terminus of the purified protein is marked in bold italic after residue 30, but the mark is an image lost in the text; also called rhuDkk-1; hDkk-1
# T3 sequence: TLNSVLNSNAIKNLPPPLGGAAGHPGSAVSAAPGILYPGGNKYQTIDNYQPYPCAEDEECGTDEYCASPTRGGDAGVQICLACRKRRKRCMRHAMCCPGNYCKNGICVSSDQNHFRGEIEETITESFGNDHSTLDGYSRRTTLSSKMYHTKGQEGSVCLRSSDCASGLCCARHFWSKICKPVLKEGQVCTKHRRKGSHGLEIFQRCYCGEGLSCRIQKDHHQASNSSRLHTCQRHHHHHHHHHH
# [4] = molecular target: T4, recombinant mouse Dkk-2 (R&D systems Cat No. 2435-DK/CF) (mouse, UniProt Q9QYZ8 34-259, limits assumed); assay: SPR BIAcore, huMabJC18 captured by goat Fab2 anti-human Fc, mDkk-2 titrated from 88.8 nM
# T4 construct: Bought; also called mDkk-2
# T4 sequence (looked up): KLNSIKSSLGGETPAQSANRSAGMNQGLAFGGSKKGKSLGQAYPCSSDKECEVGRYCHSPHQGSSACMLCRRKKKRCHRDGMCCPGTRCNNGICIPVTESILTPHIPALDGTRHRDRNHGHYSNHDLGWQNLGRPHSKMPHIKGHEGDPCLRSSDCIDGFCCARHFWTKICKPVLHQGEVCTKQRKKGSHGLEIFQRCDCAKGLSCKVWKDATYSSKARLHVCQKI
# [5] = molecular target: T3, Recombinant human Dkk-1 (R&D Systems …); assay: SPR BIAcore 25C, huMabJC18 IgG amine-coupled, human Dkk1 injected
# Procedure: The affinity of huMabJC18 to human, mouse or rat Dkk1 was determined by using the BIAcore3000™ surface plasmon resonance (SPR) system (BIAcore Inc., Piscataway, N.J.), equipped with a CM5 sensor chip (BIAcore AB, Uppsala, Sweden). For the huMabJC18-human Dkk1 interaction analysis, reaction surfaces were generated by amine coupling of huMabJC18 to three flow cells (Fc2, Fc3 and Fc4). CM5 chips were activated with N-ethyl-N′-(3-dimethylaminopropyl)-carbodiinide hydrochloride (EDC) and N-hydroxysuccinimide (NHS) according to the supplier's instructions. The huMabJC18 IgG was diluted into 10 mM sodium acetate pH 4.0 and injected over the activated chip at a concentration of 30 μg/ml.
# Using variable flow time across the individual chip channels, a range of antibody density was achieved: 200-800 response units (RU). The IgG and reference surfaces were then saturated with goat Fab2 anti-human Fc (Cappel 55053) to prevent nonspecific binding by Dkk-1 to the chip surface. The chip was then blocked with ethanolamine. Assays were performed at 25° C., with a BIAcore running buffer composed of HBS-EP (0.01M HEPES, pH 7.4, 0.15 NaCl, 3 mM EDTA, 0.005% Surfactant P20)+2 mg/ml BSA+2 mg/ml CM Dextran. A five membered, three fold dilution series starting at 30.9 nM purified human Dkk1 (R&D Systems) protein was injected for 1.5 min at 100 μL/min, and dissociation was monitored for […]. Kinetic association rates (kₒₙ) and dissociation rates (koff) were obtained simultaneously by fitting the data to a 1:1 Langmuir binding model (Karlsson, R. Roos, H. Fagerstam, L. Petersson, B. (1994). Methods Enzymology 6. 99-110) using the BIAevaluation program. Equilibrium dissociation constant (KD) values were calculated as koff/kₒₙ.
binder,measurement,setting,value
B1,Kd,[1],11 nM
same,T1/2,[1],1.12 h
same,koff,[1],0.000172 s⁻¹
same,kon,[1],15000 M⁻¹ s⁻¹
same,Kd,[2],< 0.03 nM
same,T1/2,[2],> 4.94 h
same,koff,[2],< 3.9e-05 s⁻¹
same,kon,[2],> 1.3e+06 M⁻¹ s⁻¹
same,Kd,[3],< 0.002 nM
same,koff,[3],< 2e-06 s⁻¹
same,Kd,[4],9 nM
same,T1/2,[4],1.14 h
same,koff,[4],0.000169 s⁻¹
same,kon,[4],18000 M⁻¹ s⁻¹
same,Kd,[5],< 0.002 nM
same,T1/2,[5],> 96.3 h
same,koff,[5],< 2e-06 s⁻¹
same,kon,[5],> 1.3e+06 M⁻¹ s⁻¹

# Source: patent US20130071921A1 (Pfizer, published 2013)
